Test results as given in the supplement of paper PMC10126150.
± gives the standard deviation of the averaged measurements.

test system: ATP; experiment: switch fluorescence ratio, 500 uM ATP over buffer (Cy3 cluster intensity, sum of 5 cycles each) (fold (ratio)); higher = stronger signal-on switching upon ATP binding; sequences stand for … in TCGTCGGCAGCGTCAGATGTGTATAAGAGACAGTTTTTTTTTTTTTTTTTTTTTTTTT…TC; details: aptamer strand: ATP DNA aptamer (quencher-CACCTGGGGGAGTATTGCGGAGGAAGG + anchor), 100 nM annealed; ATP concentration: 500 uM
Outline: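 The quencher-labelled ATP aptamer, at 100 nM, was annealed to Cy3-labelled switching-strand clusters on a modified Illumina MiSeq flow-cell. The clusters were imaged in selection buffer, then after 15 min with 500 uM ATP at 22 °C, and this buffer/ATP cycle ran five times with NaOH stripping and re-annealing between runs. Per-cluster fluorescence ratios, summed target-cycle over summed buffer-cycle Cy3 intensity, were averaged per switch-domain sequence. Clusters outside 100-1000 RFU were excluded.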
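Further: ATP exposure 15 min at 22 °C before imaging.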

For TCCTGTTCCT, which switch fluorescence ratio is on record?
The switch fluorescence ratio was 1.02 ± 0.062.

TCCTTGACGA was tested. Which switch fluorescence ratio did it give?
Its switch fluorescence ratio is 1.06 ± 0.013.

With TCCTTGCTTT as the sequence, how does the switch fluorescence ratio read?
Its switch fluorescence ratio is 1.1 ± 0.025.

With TCCTTGGGGT as the sequence, how does the switch fluorescence ratio read?
The switch fluorescence ratio was 1.73 ± 0.97.

Which switch fluorescence ratio does the source give for TCCTTTGCGT here?
The switch fluorescence ratio was 1.55 ± 0.39.

For TCCTTTTAAT, which switch fluorescence ratio is on record?
The switch fluorescence ratio was 1.045 ± 0.0012.

How did the switch fluorescence ratio turn out when TCCTTTTGT was run?
The switch fluorescence ratio was 1.02 ± 0.068.

With TCCTTTTGTT as the sequence, how does the switch fluorescence ratio read?
The switch fluorescence ratio was 1.06 ± 0.15.

Which switch fluorescence ratio does the source give for TCCTTTTTGC here?
Its switch fluorescence ratio is 1.07 ± 0.069.

How did the switch fluorescence ratio turn out when TCCTTTTTGT was run?
The switch fluorescence ratio was 1.41 ± 0.54.

How did the switch fluorescence ratio turn out when TCGAAAATCG was run?
Its switch fluorescence ratio is 1 ± 0.049.

TCGAAAGAGA was tested. Which switch fluorescence ratio did it give?
Its switch fluorescence ratio is 1.02 ± 0.025.

Which switch fluorescence ratio does the source give for TCGAAAGCTT here?
The switch fluorescence ratio was 1.34 ± 0.42.

For TCGAAAGTCT, which switch fluorescence ratio is on record?
The switch fluorescence ratio was 0.995 ± 0.012.

With TCGAAATCAC as the sequence, how does the switch fluorescence ratio read?
The switch fluorescence ratio was 1.32 ± 0.046.

For TCGAACTCTT, which switch fluorescence ratio is on record?
Its switch fluorescence ratio is 1.03 ± 0.021.

Which switch fluorescence ratio does the source give for TCGAACTGGG here?
The switch fluorescence ratio was 1.007 ± 0.0091.

TCGAAGTTGT was tested. Which switch fluorescence ratio did it give?
The switch fluorescence ratio was 1.01 ± 0.022.

With TCGAATATTG as the sequence, how does the switch fluorescence ratio read?
Its switch fluorescence ratio is 0.9849 ± 0.004.

For TCGAATGGGC, which switch fluorescence ratio is on record?
Its switch fluorescence ratio is 0.98 ± 0.037.

TCGAATGGGT was tested. Which switch fluorescence ratio did it give?
Its switch fluorescence ratio is 1.02 ± 0.013.

Which switch fluorescence ratio does the source give for TCGAATTCGC here?
Its switch fluorescence ratio is 1.0071 ± 8.5e-05.

How did the switch fluorescence ratio turn out when TCGACATCGG was run?
Its switch fluorescence ratio is 1.016 ± 0.0061.

With TCGACGCGCC as the sequence, how does the switch fluorescence ratio read?
The switch fluorescence ratio was 5.12 ± 0.52.

TCGACGGGCG was tested. Which switch fluorescence ratio did it give?
The switch fluorescence ratio was 1.03 ± 0.02.

With TCGACTATTT as the sequence, how does the switch fluorescence ratio read?
The switch fluorescence ratio was 1.04 ± 0.046.

Which switch fluorescence ratio does the source give for TCGAGAAAGG here?
The switch fluorescence ratio was 0.98962 ± 0.00052.

TCGAGCCATA was tested. Which switch fluorescence ratio did it give?
The switch fluorescence ratio was 1.08 ± 0.046.

How did the switch fluorescence ratio turn out when TCGAGCGCAC was run?
Its switch fluorescence ratio is 2.54 ± 0.34.

How did the switch fluorescence ratio turn out when TCGAGCTGAA was run?
The switch fluorescence ratio was 1.018 ± 0.0016.

With TCGAGGGGTC as the sequence, how does the switch fluorescence ratio read?
The switch fluorescence ratio was 1.06 ± 0.075.

Which switch fluorescence ratio does the source give for TCGAGGGGTG here?
The switch fluorescence ratio was 1.01 ± 0.039.

With TCGAGTCTTT as the sequence, how does the switch fluorescence ratio read?
The switch fluorescence ratio was 0.998 ± 0.015.

How did the switch fluorescence ratio turn out when TCGAGTTTGT was run?
The switch fluorescence ratio was 1.01 ± 0.022.

How did the switch fluorescence ratio turn out when TCGAGTTTTT was run?
Its switch fluorescence ratio is 0.996 ± 0.02.

For TCGATAGTTC, which switch fluorescence ratio is on record?
The switch fluorescence ratio was 1.03 ± 0.028.

For TCGATCAACG, which switch fluorescence ratio is on record?
The switch fluorescence ratio was 0.9909 ± 0.0013.

For TCGATCTACT, which switch fluorescence ratio is on record?
Its switch fluorescence ratio is 1.06 ± 0.024.

For TCGATGATCG, which switch fluorescence ratio is on record?
The switch fluorescence ratio was 0.963 ± 0.046.

How did the switch fluorescence ratio turn out when TCGATGATGG was run?
The switch fluorescence ratio was 1.05 ± 0.013.

How did the switch fluorescence ratio turn out when TCGATTAGGG was run?
The switch fluorescence ratio was 1.04 ± 0.017.

For TCGATTATTT, which switch fluorescence ratio is on record?
Its switch fluorescence ratio is 1.016 ± 0.0059.

How did the switch fluorescence ratio turn out when TCGATTGGCG was run?
Its switch fluorescence ratio is 1.07 ± 0.1.

With TCGCAAATTT as the sequence, how does the switch fluorescence ratio read?
The switch fluorescence ratio was 1.3 ± 0.12.

For TCGCATGTCT, which switch fluorescence ratio is on record?
The switch fluorescence ratio was 1.11 ± 0.098.

Which switch fluorescence ratio does the source give for TCGCATTCGT here?
The switch fluorescence ratio was 1.25 ± 0.026.

For TCGCATTGAG, which switch fluorescence ratio is on record?
The switch fluorescence ratio was 1.1 ± 0.011.

How did the switch fluorescence ratio turn out when TCGCCAAATT was run?
Its switch fluorescence ratio is 1.1 ± 0.21.

TCGCCATTGT was tested. Which switch fluorescence ratio did it give?
Its switch fluorescence ratio is 1.02 ± 0.03.

How did the switch fluorescence ratio turn out when TCGCCGGGCG was run?
Its switch fluorescence ratio is 0.993 ± 0.0075.

With TCGCCTGTTT as the sequence, how does the switch fluorescence ratio read?
The switch fluorescence ratio was 1.003 ± 0.0036.

With TCGCGATAAA as the sequence, how does the switch fluorescence ratio read?
Its switch fluorescence ratio is 1.06 ± 0.017.

TCGCGCATTG was tested. Which switch fluorescence ratio did it give?
Its switch fluorescence ratio is 1.14 ± 0.13.

With TCGCGCCTTG as the sequence, how does the switch fluorescence ratio read?
Its switch fluorescence ratio is 1.01 ± 0.021.

With TCGCGGGGGG as the sequence, how does the switch fluorescence ratio read?
Its switch fluorescence ratio is 0.976 ± 0.034.

How did the switch fluorescence ratio turn out when TCGCGTGGTA was run?
Its switch fluorescence ratio is 0.989 ± 0.038.

Which switch fluorescence ratio does the source give for TCGCGTTCGG here?
The switch fluorescence ratio was 1.02 ± 0.013.

TCGCTATAGC was tested. Which switch fluorescence ratio did it give?
Its switch fluorescence ratio is 1.02 ± 0.067.

TCGCTGAATA was tested. Which switch fluorescence ratio did it give?
Its switch fluorescence ratio is 1.04 ± 0.052.

For TCGCTGAGTG, which switch fluorescence ratio is on record?
The switch fluorescence ratio was 1.08 ± 0.12.

How did the switch fluorescence ratio turn out when TCGCTTACAT was run?
The switch fluorescence ratio was 1.0488 ± 0.00048.

For TCGGAAATGT, which switch fluorescence ratio is on record?
The switch fluorescence ratio was 1.12 ± 0.14.

For TCGGAATGGG, which switch fluorescence ratio is on record?
The switch fluorescence ratio was 0.975 ± 0.017.

With TCGGACGGGT as the sequence, how does the switch fluorescence ratio read?
The switch fluorescence ratio was 1.02 ± 0.025.

For TCGGACTATA, which switch fluorescence ratio is on record?
Its switch fluorescence ratio is 1.06 ± 0.033.

Which switch fluorescence ratio does the source give for TCGGACTGAG here?
The switch fluorescence ratio was 0.968 ± 0.029.

For TCGGACTTTA, which switch fluorescence ratio is on record?
The switch fluorescence ratio was 0.998 ± 0.042.

For TCGGAGAGTC, which switch fluorescence ratio is on record?
The switch fluorescence ratio was 1.26 ± 0.53.

TCGGAGGA was tested. Which switch fluorescence ratio did it give?
The switch fluorescence ratio was 1.03 ± 0.048.

For TCGGAGTTTG, which switch fluorescence ratio is on record?
The switch fluorescence ratio was 0.9963 ± 0.0024.

TCGGCCCGTT was tested. Which switch fluorescence ratio did it give?
Its switch fluorescence ratio is 1.01 ± 0.018.

TCGGCCGGAA was tested. Which switch fluorescence ratio did it give?
The switch fluorescence ratio was 1.08 ± 0.025.

How did the switch fluorescence ratio turn out when TCGGCGGGGT was run?
The switch fluorescence ratio was 1.75 ± 1.3.

How did the switch fluorescence ratio turn out when TCGGCGTTGA was run?
The switch fluorescence ratio was 0.992 ± 0.02.

Which switch fluorescence ratio does the source give for TCGGCTAAAT here?
Its switch fluorescence ratio is 1.003 ± 0.0063.

How did the switch fluorescence ratio turn out when TCGGCTTTGA was run?
Its switch fluorescence ratio is 1.01 ± 0.03.

For TCGGGAATTG, which switch fluorescence ratio is on record?
Its switch fluorescence ratio is 1.04 ± 0.085.

For TCGGGCCGG, which switch fluorescence ratio is on record?
Its switch fluorescence ratio is 0.994 ± 0.023.

Which switch fluorescence ratio does the source give for TCGGGCCTGT here?
Its switch fluorescence ratio is 1 ± 0.034.

How did the switch fluorescence ratio turn out when TCGGGCTAGC was run?
Its switch fluorescence ratio is 0.986 ± 0.012.

With TCGGGGAGCG as the sequence, how does the switch fluorescence ratio read?
Its switch fluorescence ratio is 0.949 ± 0.042.

With TCGGGGCAGC as the sequence, how does the switch fluorescence ratio read?
Its switch fluorescence ratio is 0.998 ± 0.042.

With TCGGGGCGAA as the sequence, how does the switch fluorescence ratio read?
Its switch fluorescence ratio is 1.85 ± 1.3.

For TCGGGGCTAG, which switch fluorescence ratio is on record?
The switch fluorescence ratio was 0.989 ± 0.025.

TCGGGGGATG was tested. Which switch fluorescence ratio did it give?
The switch fluorescence ratio was 0.987 ± 0.019.

How did the switch fluorescence ratio turn out when TCGGGGGATT was run?
Its switch fluorescence ratio is 0.966 ± 0.028.

Which switch fluorescence ratio does the source give for TCGGGGGTGT here?
Its switch fluorescence ratio is 1.02 ± 0.029.

TCGGGGGTTA was tested. Which switch fluorescence ratio did it give?
Its switch fluorescence ratio is 1.01 ± 0.023.

TCGGGGGTTG was tested. Which switch fluorescence ratio did it give?
Its switch fluorescence ratio is 0.996 ± 0.056.

For TCGGGGTACG, which switch fluorescence ratio is on record?
The switch fluorescence ratio was 1.01 ± 0.015.

With TCGGGGTTAT as the sequence, how does the switch fluorescence ratio read?
Its switch fluorescence ratio is 1.04 ± 0.083.

Which switch fluorescence ratio does the source give for TCGGGGTTCT here?
The switch fluorescence ratio was 1.01 ± 0.0064.

Which switch fluorescence ratio does the source give for TCGGGGTTTG here?
The switch fluorescence ratio was 1 ± 0.016.

With TCGGGTAAGA as the sequence, how does the switch fluorescence ratio read?
The switch fluorescence ratio was 1.04 ± 0.026.

For TCGGGTACTT, which switch fluorescence ratio is on record?
Its switch fluorescence ratio is 1.04 ± 0.055.

Which switch fluorescence ratio does the source give for TCGGGTAGTT here?
Its switch fluorescence ratio is 1.04 ± 0.055.

Which switch fluorescence ratio does the source give for TCGGGTCTGT here?
Its switch fluorescence ratio is 0.979 ± 0.025.

With TCGGGTGGTA as the sequence, how does the switch fluorescence ratio read?
Its switch fluorescence ratio is 1.05 ± 0.097.

With TCGGTAGGG as the sequence, how does the switch fluorescence ratio read?
The switch fluorescence ratio was 0.9717 ± 0.003.

For TCGGTAGGGA, which switch fluorescence ratio is on record?
Its switch fluorescence ratio is 0.96 ± 0.021.
